In the experiment the target is T1, carcinoembryonic antigen (CEA), purified antigen (UniProt P06731 35-685).
T1 construct: Purified CEA coated on ELISA wells; also called CEA antigen
T1 sequence (looked up): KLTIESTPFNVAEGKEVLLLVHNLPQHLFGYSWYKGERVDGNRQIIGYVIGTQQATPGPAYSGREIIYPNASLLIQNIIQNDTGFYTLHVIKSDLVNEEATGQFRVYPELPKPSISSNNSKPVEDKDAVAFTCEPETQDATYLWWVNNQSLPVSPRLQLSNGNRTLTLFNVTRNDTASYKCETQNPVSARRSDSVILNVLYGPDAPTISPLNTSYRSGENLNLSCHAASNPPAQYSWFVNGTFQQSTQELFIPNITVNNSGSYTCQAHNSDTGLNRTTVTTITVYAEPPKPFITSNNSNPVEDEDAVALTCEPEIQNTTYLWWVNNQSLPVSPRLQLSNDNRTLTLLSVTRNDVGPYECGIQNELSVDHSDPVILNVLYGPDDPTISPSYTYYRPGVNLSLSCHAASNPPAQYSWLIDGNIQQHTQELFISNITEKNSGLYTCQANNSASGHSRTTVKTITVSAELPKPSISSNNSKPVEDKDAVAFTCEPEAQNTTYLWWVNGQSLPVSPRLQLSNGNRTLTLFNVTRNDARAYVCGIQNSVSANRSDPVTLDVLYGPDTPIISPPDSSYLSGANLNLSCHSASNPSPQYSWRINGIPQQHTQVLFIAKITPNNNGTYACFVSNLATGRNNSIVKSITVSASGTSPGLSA
In words: ELISA, 200 ng CEA coated per well, 500 ng scFv MFE23 as positive control, anti-His tag antibody + HRP anti-mouse IgG, OPD read at 492 nm. The procedure:
FIG. 7. ELISA performed with 200 ng of CEA per well (left overnight at 4° C.), PBS (negative control), 500 ng of recombinant scFv MFE23 (positive control), and the P. pastoris supernatant transformed with pPICZαC-Chimera were then added after inducing expression with methanol. To develop the binding of scFvs to the CEA antigen, an anti-histidine tag antibody and a peroxidase-conjugated goat anti-mouse IgG secondary antibody were used. The peroxidase substrate was OPD, producing a yellow-orange product that can be detected at 492 nm.
An ELISA was performed using 200 ng of CEA per well, which was incubated overnight at 4° C., PBS (negative control), 500 ng of the recombinant scFv MFE23 (positive control), and the P. pastoris supernatant transformed with pPICZαC-Chimera after inducing expression with methanol were then added. To develop the binding of scFvs to the CEA antigen, an anti-histidine tag antibody and a peroxidase-conjugated goat anti-mouse IgG secondary antibody were used. The peroxidase substrate was OPD, producing a yellow-orange product that can be detected at 492 nm.

B1: recombinant scFv MFE23 (scFv)
scFv: QVKLQQSGAELVRSGTSVKLSCTASGFNIKDSYMHWLRQGPEQGLEWIGWIDPENGDTEYAPKFQGKATFTTDTSSNTAYLQLSSLTSEDTAVYYCNEGTPTGPYYFDYWGQGTTVTVSSGGGGSGGGGSGGGGSENVLTQSPAIMSASPGEKVTITCSASSSVSYMHWFQQKPGTSPKLWIYSTSNLASGVPARFSGSGSGTSYSLTISRMEAEDAATYYCQQRSSYPLTFGAGTKLELKR
notes: Positive control in the ELISA, 500 ng; also called anti-CEA scFv MFE23
Turning to B1, the binding result is on record as “binds”.

For the origin of these results see patent US20210340196A1 (UNIVERSIDAD DE ZARAGOZA, published 2021).
